In PMC12428694, “A New β-Galactosidase from Pseudomonas tritici SWRI145 for Efficient Bioproduction of Galactooligosaccharides” (Foods, 2025):

Test system: O=[N+]([O-])c1ccccc1O[C@@H]1O[C@H](CO)[C@H](O)[C@H](O)[C@H]1O
Assay: purified protein
Type: biochemical, Pseudomonas tritici
Conditions: 50 mM HEPES pH 7.5, 50 °C, 5 min, 0.3-60 mM ONPG, 1 mM Mg2+ probably present

**Q.** “Pstr β-galactosidase (Pseudomonas tritici)” was tested. Which Km did it give?
**A.** 3000 µM

**Q.** What about the kcat of the same substance?
**A.** 643.98 s⁻¹
